# Test: soluble on expression in E. coli; label from the status in PepcDB or PDB records
row,Sequence,soluble on expression in E. coli
1,MYQKFKGGDLMIHGGDIYTEGVFKGRELLDYSSNINPLGIPKSFLNNIDEGIKNLGVYPDVNYRRLNKSIENYLKLKDIGIVLGNGASEIIELSISLFEKILIIVPSYAEYEINAKKHGVSVVFSYLDENMCIDYEDIISKIDDVDSVIIGNPNNPNGGLINKEKFIHVLKLAEEKKKTIIIDEAFIEFTGDPSSSFVGEIKNYSCLFIIRAMTKFFAMPGIRFGYGITNNKEIAAKIKAKQNPWNINCFAEMAAINCLKDTNYIEESLLWIKKERKRFIEELNKIGFIKRVFSPHANFVLCRLENISGEKLYDSLLKEDIVIRRCCNFIGLDDSFVRFAIKDEKKNTKFLRALKGVENNL,soluble
2,MITFKPTRNIDLIEAVGNHPDIIAGSNNGDGYDYKPECRYFEVNVHGQFGGIVYYQEIQPLTLDCHAMYLPEIRGFSKEIGLAFWRYILTNTTVQCVTSFAARKFRHGQMYCAMIGLKRVGTIKKYFKGVDDVTFYSATREELIDFLNHGR,not soluble
3,KCGFSYGVGFNVFNYKAVVTKYNNPEGIIYNNHTGLAANKGYYEGMDIGEIWGYRADDLFLSNREIDDYLRNVNLTAFKSNDLWRRGDLKYIDSNGDGRVDGGKGTLADHGDLQIIGNTTPKYSFGINLNLGYKGFEVSTLLQGVAKRDFPISGSNYMFGGNNYNFKEHLDYFSTENPNGYLPRLTGWKDDKDFLVNTGYNTTRYLLNAAYMRMKNLTVAYTFNKKQLKHIGISNLKVYVTCDNLFTVTKLPKQFDPETLNQVNMSAGGDAQNTAPGLTSPMKQNGNGMVYPMNRNFVFGLDFTF,not soluble
4,KNSINTIKLIDDIIALHNDPKGNKLLWNDNWQDKIINRDLANIFEKIDESVSELGGLEMYQEMVGVNPYDPTEPVCGLSAQNIFKLMTEGEHAVDPVEMAQTGKIDGNEFAESVDQLSSAKNYVALVNDRRLGHMFLIDIPSNDQETVGYIYQSDLGQGALPPLKIADWLNSRGKDAVSLNKLKKLLSREFNLLSDDEKRALISETLDIHKDVSNVELDRIKRDRGVDIYLTEYDVNNFYENIETLKSKLSNYDKKLSKPK,soluble
5,MKTNFKQKIIEQARSEGLQVTALREQVLDIVLQQSGVIKAYNVLSQMQQQSEGVLAPPTAYRALDFWAEQGVLHKVAAVNGYILCSHAQHECDDHCHDHEEAEAHHSAFILVCTECGTADEQTLSHEWAALRAGVAESGFALKEEHVVLTGICKKCQQ,not soluble
6,MMHQLYPQVAHHYRYELNKDMHIAAAHFIPHEAAGSCANVHGHTYIVNVTIAGDELDESGFLVNFQTLKQLVHRKLDHTLLNDHSDWFDGHDPNRFPTSEVVARTIYETIQRYLDTLPHKPKCLQVFVRETPTSYVVYRPKAGER,soluble
7,MKILVTSGGTSEAIDSVRSITNHSTGHLGKIITETLLSAGYEVCLITTKRALKPEPHPNLSIREITNTKDLLIEMQERVQDYQVLIHSMAVSDYTPVYMTGLEEVQASSNLKEFLSKQNHQAKISSTDEVQVLFLKKTPKIISLVKEWNPTIHLIGFKLLVDVTEDHLVDIARKSLIKNQADLIIANDLTQISADQHRAIFVEKNQLQTVQTKEEIAELLLEKIQAYHSLEHHHHHH,soluble
8,MTQQHPHLLEPELGEFLTALKNTPSRLTARTAAWLCIWTASRPGMVRLAEWKEFDLDKATWTTPAAKMKMRRDFVCPLPHQAIAALKELHCLTGRSRWLFPGVGAKNPTISENTINKVFATIGYKGRLVGHGTRHTASTLLREHGWPKEHVEAQLAHKEEGLEHHHHHH,not soluble
9,MTKVQKRLFEVADKQYALFQAKLIPNIPQERVIGVRVPVLRKIAREFEKEPECRDFLNTLPHAYYDENMLHSILLSNVKNYEECIAAVEAFLPYVDNWAVCDTLRPKVFGKHKDKLLPRIKDWIASDKTYTCRFGIGMLMMHYLDKDFKPEYLELPQKVDSEEYYVKMMIAWFYATALANQWDATIPYIEEHRLSDWVHKKTIQKACESYRITDEQKAYLKTLR,not soluble
10,MGSDKIHHHHHHMRLPPLNALRAFEAAARHNGYIAAAEELCVTRGAVSRHIKLLEDHLGVTLFHRNHRGVELTAAGRQLLPVLTETFARIAREAEQISAMTRDVRIICPPALSIRWLFPRLEEFQAAHPDIRVRLTTEFYGAKGFDDTEHDLGVSVEHVSGRGAGIASMPLFPMVLSPACSPALLRQRPLSAPADLARMTLLHESPQRRDWAHWLSSFGVRGVDAGSGPTFPNLDMAARAATMGAGVVMADLALCQEELRAGTLVLPFPEMTCTTPQGGYVLLGARARWDEPHLRAFRDWAASSSADLVACMGA,not soluble
11,MSLKKYIITLLFCTLFCHLGIAQGLKSVSILGDSYSTFEGYVQPDTNFVWYLKTPPKGRKTDMVSVRNTWWHQFIKENNYRLCVNNSFSGATICHTGYRSEDYSDRSFITRMKALGCPDIIFIFGATNDYWAKSPLGEYKYADWSKKDLYSFRPAMAYMLDTMIDYYPNVEIYFLLNDGLGNEITESVRTICKHYQIDCIELKELDKMSGHPSVKGMKQISEQVKAYMNSRQNEGHHHHHH,not soluble
12,MKTMTLYVCQNCGYQSAKWLGKCPDCSAWNSLVEEVRGKGKGPSAPLSGVAPVPICDVAGEAEERLPCGISEFDRVLGGGLVAGSVILIGGDPGIGKSTLLLQVMDHLARTVGPVLYVSGEESARQARLRGERLGIRAKELLILAETALETVLAQIGAVAPRAVVIDSIQTMYAPGLESAPGSVSQVRECAGRLMVAAKRSAIPTFIVGHVTKDGSIAGPRVLEHMVDTVLYFEGDRGHAFRILRAVKNRFGSTNEIGVFEMKEGGLCEVRNPSEIFLSERPLGVSGSAVVTTIEGSRPLLVELQALVTPSSLGVPRRTTLGVDANRLALLVAVLDKKVGLHMAGQDIFLNAAGGARVSEPAADLGMVAALASSHLDKVIDPQTVVVGEVGLAGEVRAITQPETRVREAAKLGFTRAVIPAGSLKQVTAVEGMEVIGVKSVEEALDRLLLEHHHHHH,not soluble
13,MGSDKIHHHHHHMRILQIGKFYPIRGGIEKVMYDITMGLSQRQVYCDMLCASAEKQKPENLLLNDYARILCVSTWKKVAATMLSPAMIFRLRKINKEYDIIHIHHPDPMACLALFLSGYKGPVVLHWHSDILKQKMLLKLYSPLQNWLLRRAKVIVGTTPVYVQESPFLENIQRKVISVPIGIDEMKPVPGRVAQIKERYAGKKIIFSLGRLVEYKGYEYLIKASQKLNDDYIILIGGKGPLQEYLQSLIDELGVRKKVKLLGFIDDKDLPDYFGACDLFCLSSIWKTEAFGIVQIEAMSCGKPVIAMNIPESGVSWVNINRFSGINVKPEDADALAEAITAVLTDECLYEELARGARRRYETMFTKELMTELCLNLYSGVLDSSETDYPANKKE,not soluble
14,TDNFSWSTNLNFSYNDNKIKELVDDLPNGLTLTDFGGAKVILKEGGHYGDLYVRHLMRDENGKPLQNEKGEPIVSGDSMDELEYAGNMNAKVNMGWTNTFRYKDFSLSFLIDAKFGGKVISMTEAALDGWGVSKRSGEARDAGGITVDGVKFDADKYYRTTGNNNFNSPYAVENYVYDATNIRLREVTFGYTFRNLLGAGKNLTAAIIGRNLFFFHKDAPMDPDVSAGTGNGIQGVDMFALPTSRSFGLNLKLNF,not soluble
15,MSQSSDASEKEKPKEKKSQEELEKELDKELKKGGEPKTKKDDQIHKIGETFKAGHTNFTVNKVDRVQKGEYMNVGGAVNEETKTIKDDEERLIIEVTMENIGEDSISYNFIGFDLRDKNDQSVRPVFSIEEKGRILMGGTLVSGKKVTGVLSYVIPKGEQKHYTLVYNPFLADTNSSNTEERVKDDIDYLVKLDLEHHHHHH,soluble
16,MAIERIQLHTHGDDRGLLISLEQQRNVPFEIRRVYYIFGTRQGVHRGQHAHRQLNQLAVALHGSVTLLLDEGQGQGPEEVVLDDPSQGVLLGRMVWRDLHQFSEDCVLMVLADQYYDPGDYILDYDEFLTEARGVSRLEALEHHHHHH,soluble
17,MGSDKIHHHHHHMKICVLYSGGKDSTYALHWAVFKGFEVVCLITLIPKREDSWMFQYPNVIYTKYQAEAMDFKLITFGTSGEKDKELEDLKKALLQAKNEGADGIVSGALLSDYQRLNISIIAEELGLKTYTPLWRKSQEEYMRWLVKEGFKFIITSASAYGFPFDLVGKEITTEDVEKIIERARRYGFNPAFEGGEAETFVTYAPLFKTQLRVNGKLKRISEYECRYEITDIH,not soluble

# From the DeepSol protein solubility set
